Assay results published in patent publication US20110293593A1, “SIVA 2 STABILIZATION” (YEDA RESEARCH AND DEVELOPMENT CO., LTD., priority 2008, published 2011).

B1: CD70: CD27 ligand; mCD70 produced by large-scale transfection of HEK-293T cells (protein, UniProt O55237 1-195, looked up)
CD70 antigen: MPEEGRPCPWVRWSGTAFQRQWPWLLLVVFITVFCCWFHCSGLLSKQQQRLLEHPEPHTAELQLNLTVPRKDPTLRWGAGPALGRSFTHGPELEEGHLRIHQDGLYRLHIQVTLANCSSPGSTLQHRATLAVGICSPAAHGISLLRGRFGQDCTVALQRLTYLVHGDVLCTNLTLPLLPSRNADETFFGVQWICP
B2: CD154: CD40 ligand; hCD40L produced by large-scale transfection of HEK-293T cells (protein, UniProt P29965 113-261, looked up)
CD40 ligand, soluble form: MQKGDQNPQIAAHVISEASSKTTSVLQWAEKGYYTMSNNLVTLENGKQLTVKRQGLYYIYAQVTFCSNREASSQAPFIASLCLKSPGRFERILLRAANTHSSAKPCGQQSIHLGGVFELQPGASVFVNVTDPSQVSHGTGFTSFGLLKL
B3: HIS-SIVA2 (1-58) (other, not shown: small tags and cut ends)
chain: MPKRSCPFADVAPLQLKVRVSQRELSRGVCAERYSQEVFDPSGVASIACSSCVRAVDG
notes: also called SIVA N-terminus
B4: FLAG-SIVA2 (1-58) (other, not shown: small tags and cut ends)
chain: B3 chain
notes: also called SIVA N-terminus
B5: HIS-SIVA2 (other, not shown: small tags and cut ends)
chain: MPKRSCPFADVAPLQLKVRVSQRELSRGVCAERYSQEVFDPSGVASIACSSCVRAVDGKAVCGQCERALCGQCVRTCWGCGSVACTLCGLVDCSDMYEKVLCTSCAMFET
notes: Expressed by transfection in HEK293T cells

Columns and labels:
SIVA1 = SIVA1 protein level in PBMCs, western blotting with anti-SIVA antibody; type: cell-based, human; settings: resting PBMCs, ligands for 8 h
Experimental: For each cell line, cellular protein (30 μg) was resolved by 13.5% SDS-PAGE and probed with anti-SIVA antibody. The two lanes at the right show SIVA1 and SIVA2 overexpressed in HEK-293T cells (for each protein, 2 μg cDNA/well in 6-well plates). […] Cells (2×10^6) were treated with the indicated ligands for 8 h and the cell lysates were analyzed by western blotting. […] The cells were stimulated with PHA (1 μg/ml) for 48 h, washed twice with phosphate-buffered saline, and incubated for an additional period of 18 h without PHA. Ligands and genotoxic agents (camptothecin (CPT) 10 μM and cisplatin (CIS) 50 μM) were then applied for 18 h. MG132 was applied for the last 4 h of treatment. Except where otherwise indicated, MG132 was applied in this study at a concentration of […] denotes a non-specific band serving as loading control. […] Semi-quantitative RT-PCR for SIVA message was performed as described in Methods. […] Total-cell lysates were analyzed by western blotting using anti-SIVA antibody. […] Total-cell lysates were analyzed by western blotting using LDH as the loading control (bottom panel). […] HEK-293T cells were transfected with FLAG-SIVA2 and analyzed 24 h after transfection. […] Cells lysates were analyzed by western blotting using anti-SIVA antibody. Middle: HepG2 cells were exposed to UVC (20 J/m^2) and levels of SIVA proteins were determined after 18 h of treatment. […]

SIVA2 [1] = experiment: SIVA2 level/stabilization in transfected HEK-293T and EcR-293 cells, western blotting; type: cell-based, human; settings: EcR-293-CD27-SIVA2 cells, ponasterone
Experimental: (A) Expression of SIVA1 and SIVA2 in various cell lines. For each cell line, cellular protein (30 μg) was resolved by 13.5% SDS-PAGE and probed with anti-SIVA antibody. The two lanes at the right show SIVA1 and SIVA2 overexpressed in HEK-293T cells (for each protein, 2 μg cDNA/well in 6-well plates). (B) Several SIVA isoforms are expressed in PBMCs. […] (C) Ligand activation increases the amount of SIVA2 in resting PBMCs. Cells (2×10^6) were treated with the indicated ligands for 8 h and the cell lysates were analyzed by western blotting. […] The cells were stimulated with PHA (1 μg/ml) for 48 h, washed twice with phosphate-buffered saline, and incubated for an additional period of 18 h without PHA. Ligands and genotoxic agents (camptothecin (CPT) 10 μM and cisplatin (CIS) 50 μM) were then applied for 18 h. MG132 was applied for the last 4 h of treatment. Except where otherwise indicated, MG132 was applied in this study at a concentration of […] denotes a non-specific band serving as loading control. […] PBMCs were activated as in FIG. 1d. Ligands were applied to the indicated cell types for 18 h. Semi-quantitative RT-PCR for SIVA message was performed as described in Methods. GAPDH was used as a basis for normalization. […] SIVA2 or SIVA1 plasmids (0.5 μg) were transfected, and 18 h later ligands were applied for 8 h. Total-cell lysates were analyzed by western blotting using anti-SIVA antibody. TNF-induced SIVA2 stabilization was assessed in EcR-293-CD27 cells. (G) Inducibly expressed SIVA2 is stabilized by CD70. EcR-293-CD27-SIVA2 cells (see Methods) were treated with ponasterone and CD70 as indicated. Total-cell lysates were analyzed by western blotting using LDH as the loading control (bottom panel). […] HEK-293T cells were transfected with FLAG-SIVA2 and analyzed 24 h after transfection. MG132 was applied for the last 4 h of treatment. TCL, total cell lysate. (I) Differential effects of genotoxic agents on the expression of SIVA1 and SIVA2. Top: HepG2 cells were treated with CPT for 18 h. When indicated, they were transfected with pSUPER SIVA 30 h prior to CPT application. Cells lysates were analyzed by western blotting using anti-SIVA antibody. Middle: HepG2 cells were exposed to UVC (20 J/m^2) and levels of SIVA proteins were determined after 18 h of treatment. […] Bottom: HEK-293T cells were transfected with 0.5 μg of FLAG-SIVA2. CPT and CD40L were applied, 8 h after transfection, for a further 18 h.
HEK-293T cells cotransfected with NIK and SIVA2 were metabolically labeled with azido-GlcNAc, in-vitro biotinylated, and immunoprecipitated. The biotin-labeled GlcNAc moieties in SIVA2 were detected with streptavidin horseradish peroxidase (HRP). (B) SIVA binds to wheatgerm-agglutinin. The plasmids for SIVA2, alone or together with NIK or TRAF2, were transiently expressed in HEK-293T cells. Lactacystin was applied for the last 6 h of the 24-h treatment period. Lysates were analyzed for expression (right panel) and WGA binding (left panel) of SIVA2. N-acetyl-D-glucosamine (0.5 M) was added as a competitor for WGA binding. […] FLAG-SIVA2 was cotransfected with myc-NIK into HEK-293T cells and immunoprecipitated with anti-FLAG-M2 beads. The immunoprecipitated beads were boiled with 1% SDS and the eluted proteins were treated with […] hexosaminidase as described (Whelan, 2006). The samples were collected after treatment for 4, 8, and 20 h, diluted with WGA binding buffer, and lectin binding was assayed as described in Methods. Immunoprecipitation of the protein with anti-FLAG-M2 beads after treatment for 8 h as described above, followed by western analysis, confirmed that despite having lost the ability to bind to WGA the protein remained intact. ‘Sup’, SIVA protein remaining unbound after the reaction. […] The plasmids were transiently expressed in HEK-293T cells. DON (50 μM) was applied for the last 16 h and MG132 for the last 6 h of the 28-h treatment period. […] The experiment was performed as in (D). […]

SIVA2 [2] = experiment: SIVA2 protein level in PBMCs, western blotting with anti-SIVA antibody; type: cell-based, human; settings: resting PBMCs, ligands for 8 h
Experimental: For each cell line, cellular protein (30 μg) was resolved by 13.5% SDS-PAGE and probed with anti-SIVA antibody. The two lanes at the right show SIVA1 and SIVA2 overexpressed in HEK-293T cells (for each protein, 2 μg cDNA/well in 6-well plates). […] Cells (2×10^6) were treated with the indicated ligands for 8 h and the cell lysates were analyzed by western blotting. […] The cells were stimulated with PHA (1 μg/ml) for 48 h, washed twice with phosphate-buffered saline, and incubated for an additional period of 18 h without PHA. Ligands and genotoxic agents (camptothecin (CPT) 10 μM and cisplatin (CIS) 50 μM) were then applied for 18 h. MG132 was applied for the last 4 h of treatment. Except where otherwise indicated, MG132 was applied in this study at a concentration of […] denotes a non-specific band serving as loading control. […] PBMCs were activated as in FIG. 1d. Ligands were applied to the indicated cell types for 18 h. Semi-quantitative RT-PCR for SIVA message was performed as described in Methods. GAPDH was used as a basis for normalization. […] SIVA2 or SIVA1 plasmids (0.5 μg) were transfected, and 18 h later ligands were applied for 8 h. Total-cell lysates were analyzed by western blotting using anti-SIVA antibody. […] EcR-293-CD27-SIVA2 cells (see Methods) were treated with ponasterone and CD70 as indicated. Total-cell lysates were analyzed by western blotting using LDH as the loading control (bottom panel). […] HEK-293T cells were transfected with FLAG-SIVA2 and analyzed 24 h after transfection. MG132 was applied for the last 4 h of treatment. TCL, total cell lysate. […] Top: HepG2 cells were treated with CPT for 18 h. When indicated, they were transfected with pSUPER SIVA 30 h prior to CPT application. Cells lysates were analyzed by western blotting using anti-SIVA antibody. Middle: HepG2 cells were exposed to UVC (20 J/m^2) and levels of SIVA proteins were determined after 18 h of treatment. […] Bottom: HEK-293T cells were transfected with 0.5 μg of FLAG-SIVA2. CPT and CD40L were applied, 8 h after transfection, for a further 18 h.
Cells. Peripheral-blood mononuclear cells (PBMCs) were isolated from buffy-coat samples and cultured as described (Ramakrishnan et al., 2004). Ecdysone-inducible EcR-293-CD27 cell lines expressing SIVA2 (EcR-293-CD27-SIVA2) or SIVA1 (EcR-293-CD27-SIVA1) and EcR-293-CD40 were generated by transfection using the calcium phosphate method according to the instructions of the manufacturer (Invitrogen). All adherent cells—HEK-293T, EcR-293 (Invitrogen), HeLa, HeLa T-REx (Invitrogen), and HepG2—were cultured in Dulbecco's modified Eagle's medium. Both culture media were supplemented with 10% fetal calf serum, 100 U/ml pencillin, and 100 μg/ml streptomycin. The human lymphoblastoid lines Ramos (Human Burkitt's lymphoma cell line) and BJAB (B-lymphoblastoma cell line) were cultured in RPMI medium. Ecdysone-inducible EcR293-CD27 and EcR293-CD40 cell lines were generated by their stable transfection with cDNAs for human CD27 and CD40, respectively. EcR293-CD27 cell lines expressing SIVA2 (EcR293-CD27-SIVA2) or SIVA1 (EcR293-CD27-SIVA1) were generated by transfection using the calcium phosphate method, and myc NIK and myc NIK (K670A) were later introduced into these cells by retroviral transduction and selection with 1 μg/ml puromycin. Ramos cells constitutively expressing myc-NIK were generated by retroviral transduction, followed by selection with 1 μg/ml puromycin. […]

cIAP1 [3] = target: T1, cIAP1 (human, UniProt Q13490 1-618); experiment: immunoprecipitation of endogenous cIAP1 from transfected HEK293T cells (FIG. 6D right panel)
T1 construct: Also used for general sentences that say only 'cIAP1'; also called endogenous cIAP1
Experimental: (§1) Left panel: Binding in vitro. […] Right and bottom panels depict binding in transfected HEK293T cells. […] After 28 h the endogenous cIAP1 was immunoprecipitated. MG132 was applied for the last 6 h of incubation. […] After 28 h the transfected proteins were immunoprecipitated and probed for co-precipitated endogenous cIAP1. MG132 was applied for the last 6 h of incubation. […] N/A, not analyzed. The asterisk denotes assessment in the yeast two-hybrid test. […] The indicated plasmids were co-transfected into HEK293T cells.

cIAP1 [4] = target: T1, cIAP1; experiment: immunoprecipitation of the transfected protein, probed for co-precipitated endogenous cIAP1 (FIG. 6D bottom panel)
Experimental: as §1

T1 sequence (Q13490 whole entry): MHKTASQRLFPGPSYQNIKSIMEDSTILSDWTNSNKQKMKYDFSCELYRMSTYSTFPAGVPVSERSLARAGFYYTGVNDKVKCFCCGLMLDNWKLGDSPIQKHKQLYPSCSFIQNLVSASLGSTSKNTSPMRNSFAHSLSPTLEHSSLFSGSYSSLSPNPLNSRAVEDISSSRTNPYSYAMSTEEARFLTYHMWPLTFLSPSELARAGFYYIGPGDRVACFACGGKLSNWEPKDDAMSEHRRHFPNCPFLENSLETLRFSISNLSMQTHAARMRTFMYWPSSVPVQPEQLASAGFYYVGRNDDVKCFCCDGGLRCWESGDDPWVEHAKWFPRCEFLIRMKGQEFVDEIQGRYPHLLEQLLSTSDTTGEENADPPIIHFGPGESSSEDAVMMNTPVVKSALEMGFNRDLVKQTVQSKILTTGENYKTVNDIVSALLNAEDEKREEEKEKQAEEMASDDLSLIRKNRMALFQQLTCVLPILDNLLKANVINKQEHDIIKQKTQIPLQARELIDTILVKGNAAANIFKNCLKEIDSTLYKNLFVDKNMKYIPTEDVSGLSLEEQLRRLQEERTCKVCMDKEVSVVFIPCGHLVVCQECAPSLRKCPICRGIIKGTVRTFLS

Row | Molecule | SIVA1 expression (SIVA1) | SIVA2 expression (SIVA2 [2]) | binding result (cIAP1 [3]) | further results
1 | B1 | did not affect | extensive enhancement | – | stabilization of inducibly expressed SIVA2 (SIVA2 [1]): stabilized
2 | B2 | did not affect | extensive enhancement | – | –
3 | B3 | – | – | binds | –
4 | B4 | – | – | – | binding result (cIAP1 [4]): binds
5 | B5 | – | – | binds | –
